Target: CD19-Fc (CD19-IgG1 Fc fusion protein) (UniProt P15391)
Experiment: flow cytometry on cells
Conditions: for response (% Normalized Binding): n=3 independent donor replicates, untransduced background subtracted, normalized for % CAR-expressing T-cells, read off a plot; for response (% of cells in CD19-Fc binding gate): one representative example, untransduced 2%, not normalized, CD19-Fc concentration not stated for this panel, parent: 46
[1] = CD19-Fc 1.0µg/mL, parent: est. 73
[2] = CD19-Fc 0.5µg/mL, parent: est. 65

F-2 second generation (CD28+CD3ζ) CAR with the unmodified FMC63 scFv G01: VH CDR3 …>… (G>A at CDR3 position 5)
response (% Normalized Binding) [1]: 4.4 | response (% of cells in CD19-Fc binding gate) (myc+ 49% (parent F-2 myc+ 43%)): 2

F-2 second generation (CD28+CD3ζ) CAR with the unmodified FMC63 scFv G02: VH CDR3 …>… (G>A at CDR3 position 6)
response (% Normalized Binding) [1]: 5.6 | response (% of cells in CD19-Fc binding gate) (myc+ 47% (parent F-2 myc+ 43%)): 2

F-2 second generation (CD28+CD3ζ) CAR with the unmodified FMC63 scFv Y03: VH CDR3 …>… (Y>A at CDR3 position 4)
response (% Normalized Binding) [2]: 1.2 | response (% Normalized Binding) [1]: 8.6 | response (% of cells in CD19-Fc binding gate) (myc+ 43% (parent F-2 myc+ 43%)): 4

F-2 second generation (CD28+CD3ζ) CAR with the unmodified FMC63 scFv Y04: VH CDR3 …>… (Y>A at CDR3 position 8)
response (% Normalized Binding) [2]: 41 | response (% Normalized Binding) [1]: 65 | response (% of cells in CD19-Fc binding gate) (myc+ 78% (parent F-2 myc+ 43%)): 28

F-2 second generation (CD28+CD3ζ) CAR with the unmodified FMC63 scFv Y05: VH CDR3 …>… (Y>A at CDR3 position 12)
response (% Normalized Binding) [2]: 70 | response (% Normalized Binding) [1]: 100 | response (% of cells in CD19-Fc binding gate) (myc+ 46% (parent F-2 myc+ 43%)): 64

Reference: publication PMC8863855
